According to patent US20260200999A1, “SYNTHETIC TRANSCRIPTION FACTORS” (ETH ZURICH, priority 2022, published 2026):

System: Response Element-driven mCerulean reporter (MTERF1 binding sites, SEQ ID NO: 42)
Assay: mCerulean reporter co-transfection with HumTAP constructs in HEK293 cells (flow cytometry)
Type: cell-based, human
Conditions: HEK293; for reporter gene (mCerulean) expression / reporter (mCerulean) expression / mCerulean expression, fold lower than the benchmark RelA430-551 TAD: TAD fused to MTERF158-399; for reporter gene (mCerulean) expression: 5xRE reporter without spacer (SEQ ID NO: 48), compared with RelA430-551 (Example 1, FIG. 4A); for reporter (mCerulean) expression: pEF1a-driven, Example 4, FIG. 9B, C; for mCerulean expression, fold lower than the benchmark RelA430-551 TAD: FIG. 9B; for fluorescence relative to only one copy of the respective TAD: Example 1, FIG. 4A; for output expression / transcriptional activation: N-terminally truncated MTERF1 fused to RelA430-551, reporter SEQ ID NO: 48 (Example 1, FIG. 5B); for reporter expression, times less than with MTERF158-399: truncated MTERF1 DBD
Text: To construct a promoter with Response Elements/MTERF1 binding sites driving the gene of interest, the inventors placed MTERF1 binding sites (SEQ ID NO: 42) upstream a minimal TATA box (SEQ ID NO: 103). An mCerulean fluorescent reporter representing the gene of interest (Gol) was placed downstream of the TATA box. Each of these is referred to as a reporter construct. Five different reporter constructs were made comprising respectively 3, 5, 7, 9, and 11 MTERF1 binding sites 6 base pairs apart upstream of the TATA box (FIG. 1A; SEQ ID NO: 41, 44, 45, 46 and 47, respectively). They were co-transfected with the MTF construct into Hela cells. […] Using flow cytometry, relative mCerulean levels were measured and calculated by normalization to the transfection control in Hela cells (FIG. 1C). […] Next, reporter plasmids with varying spacer lengths (0, 6 bp and 10 bp; SEQ ID NO: 48, 44 and 49, respectively) (FIG. 1F) between a fixed number of REs (i.e. 5 REs/MTERF1 binding sites) were transfected with the MTF construct. […] This was confirmed using flow cytometry (FIG. 1H). […]
With the goal to engineer stronger and possibly shorter HumTAPs, the inventors fused the MTERF158-399 peptide (SEQ ID NO: 1) to a variety of transactivation domains and transfected HEK293 cells with those constructs and the reporter construct comprising 5×RE/MTERF1 binding sites without a spacer between them (SEQ ID NO: 48).
First, MTERF158-399 (SEQ ID NO: 1) was fused with different subsequences of RelA. RelA361-551 (SEQ ID NO: 27) corresponds to the sequence used in the construction of the bacterial-derived synthetic TF PIT2 [19], while RelA342-551 (SEQ ID NO: 29) contains all annotated transactivation domains according to domain annotation under Uniprot Q04206 (https://www.uniprot.org/uniprotkb/Q04206/entry). […] We also fused MTERF158-399 (SEQ ID NO: 1) to a set of transactivation domains previously found to be strong activators with a small genetic footprint (FIG. 4B).
To further decrease the DNA footprint of a HumTAP, the inventors investigated to what degree the DNA binding domain may be reduced. To this end, the inventors created 3 versions of MTERF1 subsequences fused to RelA430-551 (SEQ ID NO: 3). MTERF173-399 (SEQ ID NO: 7), MTERF1104-399 (SEQ ID NO: 9), and MTERF1135-399 (SEQ ID NO: 11) are subunits of MTERF1 without its mitochondrial transfer peptide (MTERF11-57; SEQ ID NO: 37) that either lack only the first […] N-terminal amino acids (MTERF58-72; SEQ ID NO: 39) or additionally, also lack the first (MTERF173-98; SEQ ID NO: 104) or both the first and second (MTERF1104-134; SEQ ID NO: 106) mterf motifs (FIG. 5A). The removal of N-terminal domains reduces the genetic footprint of a HumTAP (FIG. 5B). These constructs were co-transfected into HEK293 cells with the reporter construct containing 5×RE without a spacer in its promoter (SEQ ID NO: 48).
In addition to RelA430-551 (termed “v1”), the inventors tested three alternative subsequences: v2) RelA342-551 (SEQ ID NO: 29), which contains all transactivation domains as annotated on UniProt Q04206; v3) RelA361-551 (SEQ ID NO: 27), which is identical to the peptide used in the construction of PIT2 [2]; and v4) RelA521-551 (SEQ ID NO: 31), which constitutes only the transactivation domain 1 (TA1). The protein domains WW (SEQ ID NO: 21), KRAB of ZNF473 (SEQ ID NO: 23), Nuc-rec-co-Act (SEQ ID NO: 25), LMSTEN (SEQ ID NO: 19), and FoxoTAD (SEQ ID NO: 17) were recently identified as strong transactivators. To assess their functionality in the HumTAP context, the inventors created fusion proteins between each of them and MTERF158-399 (SEQ ID NO: 1) (FIG. 9A).
Upon co-transfection of HEK293 cells with plasmids encoding pEF1a-driven expression of the fusion HumTAPs, a Response Element-driven mCerulean reporter protein, and a mCherry transfection control, all peptides derived from RelA except TA1 mediated high levels of reporter gene expression. […]

[1] = two copies of TAD fused to MTERF158-399

Row | Molecule | reporter gene (mCerulean) expression | reporter (mCerulean) expression | other results
1 | NucRecCoAct: MTERF158-399 fused to the Nuc_rec_co-act domain of NCOA3 (EGQSDERALLDQLHTLLSNTDATGLEEIDRALGIPELVNQGQALEPKQ; listed as Homo sapiens) | did not lead to high reporter expression | little to no reporter expression | –
2 | TA1: MTERF158-399 fused to the TA1 domain of RelA (PGLPNGLLSGDEDFSSIADMDFSALLSQISS; listed as Homo sapiens) | did not activate reporter gene expression significantly | little to no reporter expression | –
3 | RelA342-551: MTERF158-399 fused to RelA342-551, containing all annotated transactivation domains | stronger reporter gene expression | – | –
4 | ZNF473 KRAB: MTERF158-399 fused to the KRAB domain of ZNF473 (FVTLKDVGMDFTLGDWEQLGLEQGDTFWDTALDNCQDLFLLDPP; listed as Homo sapiens) | did not lead to high reporter expression | little to no reporter expression | –
5 | WW: MTERF158-399 fused to the WW domain of WWC1 | did not lead to high reporter expression | little to no reporter expression | –
6 | VP64: MTERF158-399 fused to VP64, viral-derived transactivation domain repeats of HHV11 linked by a GS linker (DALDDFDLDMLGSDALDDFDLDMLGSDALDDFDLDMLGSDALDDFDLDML) | lower reporter expression than the benchmark | – | –
7 | FoxoTAD: MTERF158-399 fused to the FOXO-TAD domain of FOXO3 (HEKFPSDLDLDMFNGSLECDMESIIRSELMDADGLDFNFDS; listed as Homo sapiens) | mediated significant mCerulean expression | – | mCerulean expression, fold lower than the benchmark RelA430-551 TAD: 8.4 fold
8 | SEQ ID NO: 33: MTERF158-399 fused to two copies of FOXO3604-644 (protein) HEKFPSDLDLDMFNGSLECDMESIIRSELMDADGLDFNFDSHEKFPSDLDLDMFNGSLECDMESIIRSELMDADGLDFNFDS | – | enhanced the transcriptional activity of the synthetic TF more than two copies of TA1 or two copies of LMSTEN | mCerulean expression, fold more than the benchmark RelA430-551 TAD (fused to MTERF158-399, FIG. 9C): ~ 2 fold; fluorescence relative to only one copy of the respective TAD [1]: 12 times; mCerulean/reporter expression, fold more than one copy of the TAD (two copies of TAD fused to MTERF158-399, Example 4, FIG. 9C): 20 fold
9 | MTERF1135-399: MTERF1 lacking N-term and first and second Mterf motif, fused to RelA430-551 (protein, listed as Homo sapiens) TPENLSKRWDLWRKIVTSDLEIVNILERSPESFFRSNNNLNLENNIKFLYSVGLTRKCLCRLLTNAPRTFSNSLDLNKQMVEFLQAAGLSLGHNDPADFVRKIIFKNPFILIQSTKRVKANIEFLRSTFNLNSEELLVLICGPGAEILDLSNDYARRSYANIKEKLFSLGCTEEEVQKFVLSYPDVIFLAEKKFNDKIDCLMEENISISQIIENPRVLDSSISTLKSRIKELVNAGCNLSTLNITLLSWSKKRYEAKLKKLSRFA | – | – | functionality of synTF with truncated DBD (FIG. 9E): non-functional; output expression / transcriptional activation: complete loss of transcriptional activation
10 | SEQ ID NO: 35: MTERF158-399 fused to two copies of RelA521-551 (protein) PGLPNGLLSGDEDFSSIADMDFSALLSQISSPGLPNGLLSGDEDFSSIADMDFSALLSQISS | – | led to reporter expression | fluorescence relative to only one copy of the respective TAD [1]: 201 times
11 | MTERF173-399: MTERF1 lacking N-term, fused to RelA430-551 (protein, listed as Homo sapiens) EDLLKNLLTMGVDIDMARKRQPGVFHRMITNEQDLKMFLLSKGASKEVIASIISRYPRAITRTPENLSKRWDLWRKIVTSDLEIVNILERSPESFFRSNNNLNLENNIKFLYSVGLTRKCLCRLLTNAPRTFSNSLDLNKQMVEFLQAAGLSLGHNDPADFVRKIIFKNPFILIQSTKRVKANIEFLRSTFNLNSEELLVLICGPGAEILDLSNDYARRSYANIKEKLFSLGCTEEEVQKFVLSYPDVIFLAEKKFNDKIDCLMEENISISQIIENPRVLDSSISTLKSRIKELVNAGCNLSTLNITLLSWSKKRYEAKLKKLSRFA | – | – | output expression / transcriptional activation: reduced but not abolished; reporter expression, times less than with MTERF158-399 (FIG. 9E): ~ 1.5 times
12 | MTERF1104-399: MTERF1 lacking N-term and first Mterf motif, fused to RelA430-551 (protein, listed as Homo sapiens) EQDLKMFLLSKGASKEVIASIISRYPRAITRTPENLSKRWDLWRKIVTSDLEIVNILERSPESFFRSNNNLNLENNIKFLYSVGLTRKCLCRLLTNAPRTFSNSLDLNKQMVEFLQAAGLSLGHNDPADFVRKIIFKNPFILIQSTKRVKANIEFLRSTFNLNSEELLVLICGPGAEILDLSNDYARRSYANIKEKLFSLGCTEEEVQKFVLSYPDVIFLAEKKFNDKIDCLMEENISISQIIENPRVLDSSISTLKSRIKELVNAGCNLSTLNITLLSWSKKRYEAKLKKLSRFA | – | – | output expression / transcriptional activation: reduced but not abolished; reporter expression, times less than with MTERF158-399 (FIG. 9E): ~ 1.5 times
13 | LMSTEN: MTERF158-399 fused to the LMSTEN domain of MYB (protein, listed as Homo sapiens) EAQNVSSHVPYPVALHVNIVNVPQPAAAAIQRHYNDEDPEKEKRIKELELLLMSTENELKGQQVLPTQNHTCSYPGWHST | mediated significant mCerulean expression | – | mCerulean expression, fold lower than the benchmark RelA430-551 TAD: 11.3 fold
14 | RelA361-551: MTERF158-399 fused to RelA361-551 transactivation domain (PIT2 version) (protein, listed as Homo sapiens) DEFPTMVFPSGQISQASALAPAPPQVLPQAPAPAPAPAMVSALAQAPAPVPVLAPGPPQAVAPPAPKPTQAGEGTLSEALLQLQFDDEDLGALLGNSTDPAVFTDLASVDNSEFQQLLNQGIPVAPHTTEPMLMEYPEAITRLVTGAQRPPDPAPAPLGAPGLPNGLLSGDEDFSSIADMDFSALLSQISS | stronger reporter gene expression | – | –
